# Results: paper PMC5916898, “Global profiling of protein–DNA and protein–nucleosome binding affinities using quantitative mass spectrometry”
# T1: GLIS2 (Homo sapiens, UniProt Q9BZE0)
# T1 sequence: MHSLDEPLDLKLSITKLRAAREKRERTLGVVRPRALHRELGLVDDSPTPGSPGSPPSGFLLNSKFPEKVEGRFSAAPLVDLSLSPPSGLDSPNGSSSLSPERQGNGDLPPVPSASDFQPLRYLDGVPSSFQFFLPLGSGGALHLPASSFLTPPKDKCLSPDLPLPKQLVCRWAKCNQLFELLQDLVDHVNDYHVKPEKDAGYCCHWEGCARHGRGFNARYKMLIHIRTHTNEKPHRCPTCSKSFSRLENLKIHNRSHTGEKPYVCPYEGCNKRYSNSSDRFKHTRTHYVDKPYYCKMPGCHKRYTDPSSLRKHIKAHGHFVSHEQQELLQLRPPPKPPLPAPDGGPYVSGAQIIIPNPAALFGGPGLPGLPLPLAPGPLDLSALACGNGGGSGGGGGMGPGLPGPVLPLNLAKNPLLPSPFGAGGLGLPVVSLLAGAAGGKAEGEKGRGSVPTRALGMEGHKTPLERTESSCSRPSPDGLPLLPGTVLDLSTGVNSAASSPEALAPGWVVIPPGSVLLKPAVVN
# What was measured:
# [1] = target: T1, GLIS2; test: pulldown; 150 mM NaCl, 50 mM Tris pH 8, 0.25% NP-40, 1 mM TCEP; 4 C, 2 h; 100 ug HeLa nuclear lysate; conditions: protein: extract; label: 5' biotin (strand 1)
# [2] = target: HOXC10 (Homo sapiens, UniProt Q9NYD6); test: as above; conditions: protein: extract; label: 5' biotin (strand 1)
# Chain of HOXC10 (Q9NYD6 whole entry): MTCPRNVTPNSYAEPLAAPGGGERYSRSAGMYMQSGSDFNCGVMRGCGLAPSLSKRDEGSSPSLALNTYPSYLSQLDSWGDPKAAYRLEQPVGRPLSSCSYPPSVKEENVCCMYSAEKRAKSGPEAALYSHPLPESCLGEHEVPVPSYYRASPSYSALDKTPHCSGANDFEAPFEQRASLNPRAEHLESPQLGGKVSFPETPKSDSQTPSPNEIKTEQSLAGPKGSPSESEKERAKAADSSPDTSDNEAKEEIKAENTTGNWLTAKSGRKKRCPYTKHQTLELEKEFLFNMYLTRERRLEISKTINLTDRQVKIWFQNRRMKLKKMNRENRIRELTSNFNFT
Binder,apparent K (half saturation) [1],apparent K (half saturation) [2]
CTCF (dsDNA) DNA 1: TCAGAGTGGCGGCCAGCAGGGGGCGCCCTTGCCAGA DNA 2: TCTGGCAAGGGCGCCCCCTGCTGGCCGCCACTCTGA,15 nM,–
TATA-box (dsDNA) DNA 1: GCGGCGCTCTATATAAGTGGGCAGTG DNA 2: CACTGCCCACTTATATAGAGCGCCGC,–,87.8 nM
